# Reference: publication PMC6336276
# Legend:
# P69949 = test: AUC; sedimentation velocity of Str. enolase alone, TME-SO4, 20°C, 37000 rpm; c(s) distribution, percent octamer and monomer; octamer to monomers and other species
# [1] = molecular target: Str. enolase DB (Streptococcus pyogenes) (UniProt P69949); test: as above
# [2] = molecular target: Str. enolase DB no hexa-his tag (Streptococcus pyogenes) (UniProt P69949); test: as above
# [3] = molecular target: Str. enolase F137L/E363G (Streptococcus pyogenes) (UniProt P69949); test: AUC; sedimentation velocity of Str. enolase alone in different buffers (KPi with or without Mg(II), NaCl, imidazole; TME-SO4); octamer to monomers, dimers, tetramers
# [4] = molecular target: Str. enolase 137/363–2 K252A K255A (Streptococcus pyogenes) (UniProt P69949); test: dual polarization interferometry (DPI); Str. enolase adsorbed first on an unmodified silicon oxynitride chip, then DPgn injected; 3 μM each protein, 8 min injections, 25 μL/min/channel, 20°C; proteins in TME-SO4, wash buffer 10 mM phosphate
# [5] = molecular target: Str. enolase DB (Streptococcus pyogenes) (UniProt P69949); test: as above
# [6] = molecular target: Str. enolase DB (Streptococcus pyogenes) (UniProt P69949); test: AUC; sedimentation velocity, 20°C, 37000 rpm, TME-SO4; DPgn alone, Str. enolase alone and the mixture at the same concentrations; shift of the s value of the DPgn peak (Sedfit c(s), DCDT+)
# [7] = molecular target: Str. enolase 137/363–4 (Streptococcus pyogenes) (UniProt P69949); test: SPR; localized SPR (Nicoya OpenSPR); hexa-his-tagged Str. enolase 137/363–4 immobilised on a Ni-NTA chip, DPgn injected at successive concentrations in duplicate, ovalbumin as control; Pi, imidazole, NaCl buffer; close to 27 °C; one to two model (TraceDrawer 1.5)
# [8] = molecular target: Str. enolase 137/363–4 (Streptococcus pyogenes) (UniProt P69949); test: AUC; sedimentation velocity, TME-SO4, 20°C; five concentrations of 137/363–4 (1-11.7 μM) and DPgn (0.43-4.2 μM); global fit to an equilibrium constant in Sedphat
substance,measurement,setting,value
Str. enolase 137/363–2 K252A K255A,% monomer (from AUC),P69949,70.4%
Str. enolase DB,% monomer (from AUC),P69949,0.4 (nil?)
Str. enolase DB (from UniProt P69949 1-435) (enzyme),% octamer (from AUC),[1],88%
same,stoichiometry N,[1],8
Str. enolase DB no hexa-his tag,% monomer (from AUC),P69949,1.3%
Str. enolase DB no hexa-his tag (from UniProt P69949 1-435) (enzyme),% octamer (from AUC),[2],81.6%
Str. enolase F137L/E363G (from UniProt P69949 1-435) (enzyme),stoichiometry N,[3],8
canine plasminogen (natural protein),mass of enolase + DPgn layer,[4],5.3 ng/mm^2
same,mass of enolase + DPgn layer,[5],2.8 ng/mm^2
same,Ka,[6],< 10000 M⁻¹
same,KD1 (site 1 of a one to two model),[7],1.34 µM
same,KD2 (site 2 of a one to two model),[7],2.66 µM
same,ka1 (site 1 of a one to two model),[7],1300
same,ka2 (site 2 of a one to two model),[7],9600
same,kd1 (site 1 of a one to two model),[7],0.0017
same,kd2 (site 2 of a one to two model),[7],0.026
same,stoichiometry N (DPgn per enolase monomer),[7],1.6
same,Ka,[8],340000 M⁻¹
same,Kd,[8],3000 nM
